Tests used:
[1] = target: ZEN-4 1-585mAG (C. elegans)
[2] = target: VenusZ435-555 (ZEN-4 neck and coiled coil with the motor domain replaced by Venus) (C. elegans); assay: SDS-PAGE and densitometry of the purified complex; band intensities of the ZEN-4 and CYK-4 fragments, staining assumed proportional to molecular weight
Sequence of VenusZ435-555 (ZEN-4 neck and coiled coil with the motor domain replaced by Venus) (C. elegans) (main, as listed by the source): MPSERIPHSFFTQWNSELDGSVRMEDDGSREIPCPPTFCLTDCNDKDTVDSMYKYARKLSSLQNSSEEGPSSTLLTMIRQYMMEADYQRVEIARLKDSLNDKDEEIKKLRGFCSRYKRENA

microtubule gliding velocity of surface-immobilised Z585mAG co-purified with C120 (180 nm/s for Z585mAG alone) [1]: 30 nm/s | stoichiometry N (C120 per ZEN-4 fragment) [2]: 0.94
Substance: CYK-4 1-120 (domain or fragment)

Reference: publication PMC4395295
